# Test results from article PMC11825280.
# Target: rVSV-EBOV/Mayinga GP (EBOV/H.sap-tc/COD/76/Yambuku-Mayinga), thermolysin-cleaved (Ebola virus (EBOV)) (UniProt Q05320)
# Assay: ELISA
# rVSV-EBOV/Mayinga GP (EBOV/H.sap-tc/COD/76/Yambuku-Mayinga), thermolysin-cleaved (Ebola virus (EBOV)), sequence (Q05320 33-676): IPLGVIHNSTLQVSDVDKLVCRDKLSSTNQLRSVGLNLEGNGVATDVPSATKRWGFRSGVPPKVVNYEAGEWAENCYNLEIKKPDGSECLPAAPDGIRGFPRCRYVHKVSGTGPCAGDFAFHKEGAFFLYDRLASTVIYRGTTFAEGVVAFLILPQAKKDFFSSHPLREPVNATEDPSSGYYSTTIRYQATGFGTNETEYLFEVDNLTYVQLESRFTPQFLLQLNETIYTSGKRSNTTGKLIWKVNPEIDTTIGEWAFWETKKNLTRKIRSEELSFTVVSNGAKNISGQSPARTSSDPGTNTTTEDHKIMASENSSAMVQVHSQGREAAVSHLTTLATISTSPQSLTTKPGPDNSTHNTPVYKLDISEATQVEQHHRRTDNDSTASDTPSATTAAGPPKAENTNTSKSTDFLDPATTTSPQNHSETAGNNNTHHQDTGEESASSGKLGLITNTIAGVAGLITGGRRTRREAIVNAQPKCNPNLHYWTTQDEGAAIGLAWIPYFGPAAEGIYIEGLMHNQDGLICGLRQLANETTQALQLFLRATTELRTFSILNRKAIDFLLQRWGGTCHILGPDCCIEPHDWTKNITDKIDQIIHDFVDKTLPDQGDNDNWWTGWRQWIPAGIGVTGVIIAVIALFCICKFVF
substance,measurement,value
soluble human NPC1 domain C (NPC1-C) (from UniProt O15118 23-1278) (domain or fragment),binding AUC,277
